# Test results reported in paper PMC6191538.
# Target: Hoc- Soc- phage T4 particles (capsid) (phage T4) (UniProt P13332)
# Assay: co-sedimentation
substance,measurement,value
Soc-PA (93 kDa),BC50 (half-maximal binding concentration),1140 nM
